The values below are quoted from earlier work in doi:10.1101/2022.02.18.481064.

The target of the data set is Cys106 (UniProt position 106, LIAAICAGPTA). The following applies: Reduced Cys106 thiol/thiolate is implied. The state is otherwise not stated.

The term pKa denotes the negative logarithm of the acid dissociation constant. On to “DJ-1 (Parkinson disease protein 7, PARK7) (Homo sapiens)”, for which the pKa is listed as 5.4.
